Results from publication PMC11721465 (Molecular Neurodegeneration, 2025).
Substitutions are numbered along the chain they refer to. Names may count otherwise.

T1: Human IL-34 (19–241) (human, UniProt Q6ZMJ4 19-241)
T1 construct: IL-34, human, residues 19-241; source: Expi293F cells, secreted, purified from the media using NiNTA chromatography
T1 sequence (looked up): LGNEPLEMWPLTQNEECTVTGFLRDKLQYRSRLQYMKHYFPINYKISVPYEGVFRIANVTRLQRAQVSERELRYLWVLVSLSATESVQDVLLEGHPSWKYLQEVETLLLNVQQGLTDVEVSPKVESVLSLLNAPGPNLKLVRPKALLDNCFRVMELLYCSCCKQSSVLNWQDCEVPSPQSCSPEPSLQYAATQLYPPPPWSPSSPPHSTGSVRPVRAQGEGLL

B1: TREM2 (19–134) WT, biotinylated (domain or fragment, human, UniProt Q9NZC2 19-134, looked up)
chain: HNTTVFQGVAGQSLQVSCPYDSMKHWGRRKAWCRQLGEKGPCQRVVSTHNLWLLSFLRRWNGSTAITDDTLGGTLTITLRNLQPHDAGLYQCQSLHGSEADTLRKVLVEVLADPLD
modifications: biotin on the C-terminal BirA biotinylation sequence (enzymatic, BirA)
notes: glycosylated (mammalian cells); also called TREM2 WT; source: Expi293F cells, purified, enzymatically biotinylated using BirA
B2: TREM2 (19–134) D87N, biotinylated (domain or fragment, human, UniProt Q9NZC2 19-134, looked up)
chain: B1 chain with D69N
modifications: biotin on the C-terminal BirA biotinylation sequence (enzymatic, BirA)
notes: AD risk variant that occurs in nature; source: Expi293F cells, purified, enzymatically biotinylated using BirA
B3: TREM2 (19–134) W78D, biotinylated (domain or fragment, human, UniProt Q9NZC2 19-134, looked up)
chain: B1 chain with W60D
modifications: biotin on the C-terminal BirA biotinylation sequence (enzymatic, BirA)
notes: source: Expi293F cells, purified, enzymatically biotinylated using BirA
B4: TREM2 (19–134) R62H, biotinylated (domain or fragment, human, UniProt Q9NZC2 19-134, looked up)
chain: B1 chain with R44H
modifications: biotin on the C-terminal BirA biotinylation sequence (enzymatic, BirA)
notes: as for B2
B5: TREM2 (19–134) R46D, biotinylated (domain or fragment, human, UniProt Q9NZC2 19-134, looked up)
chain: B1 chain with R28D
modifications: biotin on the C-terminal BirA biotinylation sequence (enzymatic, BirA)
notes: as for B3
B6: TREM2 (19–134) T85D, biotinylated (domain or fragment, human, UniProt Q9NZC2 19-134, looked up)
chain: B1 chain with T67D
modifications: biotin on the C-terminal BirA biotinylation sequence (enzymatic, BirA)
notes: as for B3
B7: TREM2 (19–134) R47H, biotinylated (domain or fragment, human, UniProt Q9NZC2 19-134, looked up)
chain: B1 chain with R29H
modifications: biotin on the C-terminal BirA biotinylation sequence (enzymatic, BirA)
notes: as for B2
B8: TREM2 (19–134) T96K, biotinylated (domain or fragment, human, UniProt Q9NZC2 19-134, looked up)
chain: B1 chain with T78K
modifications: biotin on the C-terminal BirA biotinylation sequence (enzymatic, BirA)
notes: as for B2
B9: TREM2 (19–134) L75D, biotinylated (domain or fragment, human, UniProt Q9NZC2 19-134, looked up)
chain: B1 chain with L57D
modifications: biotin on the C-terminal BirA biotinylation sequence (enzymatic, BirA)
notes: as for B3
B10: TREM2 (19–134) R122D/K123D, biotinylated (domain or fragment, human, UniProt Q9NZC2 19-134, looked up)
chain: B1 chain with R104D, K105D
modifications: biotin on the C-terminal BirA biotinylation sequence (enzymatic, BirA)
notes: as for B3
B11: TREM2 (19–134) L69D/L71D, biotinylated (domain or fragment, human, UniProt Q9NZC2 19-134, looked up)
chain: B1 chain with L51D, L53D
modifications: biotin on the C-terminal BirA biotinylation sequence (enzymatic, BirA)
notes: as for B3
B12: TREM2 (19–134) R122E, biotinylated (domain or fragment, human, UniProt Q9NZC2 19-134, looked up)
chain: B1 chain with R104E
modifications: biotin on the C-terminal BirA biotinylation sequence (enzymatic, BirA)
notes: as for B3
B13: TREM2 (19–134) W44D/L69D/L71D, biotinylated (domain or fragment, human, UniProt Q9NZC2 19-134, looked up)
chain: B1 chain with W26D, L51D, L53D
modifications: biotin on the C-terminal BirA biotinylation sequence (enzymatic, BirA)
notes: as for B3
B14: TREM2 (19–134) R77D, biotinylated (domain or fragment, human, UniProt Q9NZC2 19-134, looked up)
chain: B1 chain with R59D
modifications: biotin on the C-terminal BirA biotinylation sequence (enzymatic, BirA)
notes: as for B3

target: T2, oligomeric amyloid beta 42 (UniProt P05067 672-713); assay: not stated; KD of oAβ42 and TREM2 referred to Supplemental Fig. 9; method not given; conditions: both partners purified
T2 construct: amyloid beta 42 (Aβ42), cut product of the amyloid precursor protein; oligomers of unstated size; also called oAβ42; Aβ42 oligomers; source: bought: Anaspec; oligomers made from HFIP/DMSO-treated peptide in PBS, 37 °C, 3 h

| Kd [µM] | Binder |
| --- | --- |
| 0.042 | B1 |

target: T1, Human IL-34 (19–241); assay: BLI; biotinylated TREM2 WT or variant immobilised on SA biosensors; IL-34 62.5–1000 nM; PBS with 0.1% BSA and 0.005% Tween-20; 1:1 kinetic fits; conditions: both partners purified

| Kd [µM] | Binder |
| --- | --- |
| 0.0165 ± 0.0002 | B1 |
| 0.0284 ± 0.0005 | B2 |
| 0.0172 ± 0.0004 | B3 |
| 0.075 | B4 |
| 0.018 ± 0.0003 | B5 |
| 0.0215 ± 0.0006 | B6 |
| 0.0798 ± 0.0024 | B7 |
| 0.0237 ± 0.0004 | B8 |
| 0.0366 ± 0.0009 | B9 |
| 0.0185 ± 0.0003 | B10 |
| 0.0202 ± 0.0003 | B11 |
| 0.0294 ± 0.0004 | B12 |
| 0.0258 ± 0.0003 | B13 |
| 0.114 ± 0.004 | B14 |

target: T3, TDP-43, full length, soluble oligomers (human, UniProt Q13148 1-414); assay: BLI; biotinylated TREM2 WT or variant immobilised on SA biosensors; TDP-43 oligomers 0.625–10 µM; PBS with 0.1% BSA and 0.005% Tween-20; biphasic curves, only qualitatively evaluated; conditions: both partners purified
T3 construct: TDP-43, human, full length; oligomers of unstated size; also called oligomeric TDP-43; TDP-43 oligomers; source: E coli, purified from insoluble inclusion bodies, solubilized in 6 M guanidine, oligomers made by 1:100 dilution
T3 sequence (Q13148 whole entry): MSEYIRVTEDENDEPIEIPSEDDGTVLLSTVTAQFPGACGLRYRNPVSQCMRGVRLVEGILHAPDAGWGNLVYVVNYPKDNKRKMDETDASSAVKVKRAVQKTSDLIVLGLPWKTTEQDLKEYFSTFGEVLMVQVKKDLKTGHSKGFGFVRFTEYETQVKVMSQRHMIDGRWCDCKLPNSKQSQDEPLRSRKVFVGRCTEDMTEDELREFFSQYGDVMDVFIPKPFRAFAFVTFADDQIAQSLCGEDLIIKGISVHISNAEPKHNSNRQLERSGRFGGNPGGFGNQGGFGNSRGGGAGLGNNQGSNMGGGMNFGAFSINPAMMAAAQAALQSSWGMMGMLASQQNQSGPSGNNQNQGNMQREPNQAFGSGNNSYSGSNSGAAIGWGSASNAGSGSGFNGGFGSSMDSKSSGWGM

| binding result | Binder |
| --- | --- |
| binds | B1 |
| binds | B2 |
| binds | B4 |
| binds | B7 |

target: T4, apolipoprotein E3 (UniProt P02649 19-317); assay: BLI; biotinylated TREM2 WT or variant immobilised on streptavidin (SA) biosensors; apoE in solution (apoE4 0.012–50 µM); PBS with 0.1% BSA and 0.005% Tween-20; double-reference subtraction; steady-state analysis; conditions: both partners purified
T4 construct: also called apoE3
T4 sequence (P02649 19-317): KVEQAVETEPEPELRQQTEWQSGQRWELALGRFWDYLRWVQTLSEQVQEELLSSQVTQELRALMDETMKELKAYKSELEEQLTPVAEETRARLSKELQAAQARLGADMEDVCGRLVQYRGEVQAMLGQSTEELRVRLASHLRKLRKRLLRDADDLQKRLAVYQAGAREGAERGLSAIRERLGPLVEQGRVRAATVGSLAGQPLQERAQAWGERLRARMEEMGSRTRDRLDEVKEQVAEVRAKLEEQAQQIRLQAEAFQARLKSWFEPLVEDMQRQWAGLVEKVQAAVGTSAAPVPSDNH

| Kd [µM] | Binder |
| --- | --- |
| 0.079 | B2 |
